Assay [1] deals with pAKT^S473. Description: pAKT S473 western blot in human SGBS adipocytes and human primary skeletal muscle cells. It counts as cell-based. The protocol: (§1) Western blots and molecular analyses. For western blotting, homogenized tissues or whole-cell lysates, samples were lysed in RIPA buffer containing protease inhibitor cocktail (Roche) and phosphatase inhibitor cocktail (Roche). Cell lysates were centrifuged at 14,000×g for 15 min and supernatants were prepared in 4×LDS Sample Buffer (Invitrogen) and separated by SDS-PAGE and transferred to Immobilon 0.45 μm membranes (Millipore). For Western blotting of plasma samples, 1 μl of plasma was prepared in 2× sample buffer (Invitrogen) with reducing agent, boiled, and analyzed using Western blot against indicated antibody. Protein kinase array (R&D systems ARY003B) was performed according to the manufacturers' description. All antibodies used in this paper are described in STAR methods.

For assay [2], the system named is human SGBS adipocytes. The experiment in a line: 2-deoxy-3H-glucose uptake in human SGBS adipocytes. It counts as cell-based. The protocol: Mouse and human pre-adipocytes culture and differentiation. Inguinal fat pads from 4-8 week old C57BL/6J male and female mice were dissected and mechanically digested for 10 min using spring scissors. Digested tissues were incubated in WAT isolation buffer (10 ml PBS, 2.4 U/ml dispase II (#04942078001, Roche), 10 mg/ml collagenase D (#11088858001, Roche) at 37° C. for 45 min. 20 mL growth media was added and the tissue suspension was filtered through a 100-μm cell strainer and centrifuged at 600×g for 5 min. The cell pellets were resuspended in 20 mL growth media, filtered through a 40-μm cell strainer, centrifuged at 600×g for 5 min, resuspended in 10 mL growth media, and plated in 10-cm collagen-coated dishes. The cells were cultured in growth media (DMEM/F-12 Glutamax, Thermo Fisher Scientific #10565018) supplemented with 10% fetal bovine serum. Two days post-confluency, differentiation was induced with growth media containing 1 μM rosiglitazone, 0.5 mM isobutylmethylxanthine, 1 μM dexamethasone, 5 μg/mL insulin. After two days, cells were re-fed with growth media containing 1 μM rosiglitazone and 5 μg/mL insulin. Cells were fully differentiated after 6-8 days. For ISM1 knockdown or overexpression in primary adipocytes using adenovirus, 500 μL crude virus was mixed with 500 μL fresh growth media containing 1 μM rosiglitazone and 5 μg/mL insulin was added to each well at day 2 of differentiation. At day 4, virus-containing media was removed and 500 μL fresh growth media without stimulators was added to each well. SGBS cells were differentiated as described previously (Fischer-Posovszky et al., 2008; Wabitsch et al., 2001). Briefly, cells were cultured in growth media DMEM/F-12 Glutamax, supplemented with 10% fetal bovine serum, 33 uM biotin, and 17 uM pantothenate. Two days post confluency, differentiation was induced with serum-free DMEM/F12 media containing 33 uM biotin, 17 uM pantothenate, 0.01 mg/ml transferrin, 20 nM insulin, 100 nM cortisol, 0.2 nM triiodothyronine, 25 nM dexamethasone, 0.25 mM isobutyl methylxanthine, and 2 μM rosiglitazone. After four days, cells were re-fed with growth media containing 0.01 mg/ml transferrin 20 nM insulin, 100 nM cortisol, 0.2 nM triiodothyronine. Cells were fully differentiated after day 8-10.
Glucose uptake. Glucose uptake was performed as previously described (You et al., 2017). Briefly, 2-Deoxy-d-[2,6-3H]-glucose was purchased from PerkinElmer NEN radiochemicals. Fully differentiated adipocytes were washed with KRH buffer and starved in 0.5% BSA in KRH buffer for 4 h. Indicated concentrations of insulin or ISM1 were added at indicated time points. Cells were treated with a mixture of 500 μM 2-deoxy-D-glucose and 1.71 μCimL^−1 2-Deoxy-D-[1,2-3H (N)]-glucose for another 10 min followed by three washes using ice cold KRH buffer containing 200 mM glucose. The passive glucose uptake in the presence of 50 uM CytoB was less than 12% of the total glucose uptake. Cells were solubilized in 1% SDS and radioactivity was measured by liquid scintillation counting.

Assay [3] deals with DIO mice. Description: Therapeutic ISM1, Metformin or combined administration for 21 days in DIO mice. It counts as in vivo, mouse. Conditions: daily for 21 days; compared with vehicle. How it is done: Therapeutic ISM1 recombinant protein administration in vivo. All pharmacologic studies using recombinant ISM1 protein were performed in mice with established diet-induced obesity or non-alcoholic fatty liver disease (NAFLD). For all experiments, male C57BL/6J mice purchased from Jax were fed either a high-fat diet (#D12492, Research Diets) or a NAFLD diet (#D09100310, Research Diets) prior to ISM1 protein injections. In all experiments, mice were mock injected with saline for three days prior to protein or drug injections to prevent stress-induced weight loss. Mice were I.P. injected with vehicle (saline) or indicated doses of ISM1 protein diluted in saline. For the 14-day experiments in NAFLD mice, 7-weeks old mice were fed with NAFLD diet for 3 weeks and then mock injected with saline for 3 days prior to protein injections. The induction of lipid accumulation with NAFLD diet was verified by the significant increase in hepatic lipid levels compared with mice on chow diet at the same time point. NAFLD mice were then daily I.P. injected with either vehicle (saline containing 5% DMSO and 10% Kolliphor) or indicated doses of ISM1 protein (500 μg/kg or 5 mg/kg) or with FXR agonist (30 mg/kg, GW4064, Sigma-Aldrich, #G5172) diluted in vehicle (saline containing 5% DMSO and 10% Kolliphor). For the 21-day experiments in HFD mice, mice were mock injected with saline for three days prior to protein injections. Mice were then daily I.P. injected with either vehicle (saline) or 5 mg/kg of ISM1 protein diluted in saline. Metformin (100 mg/kg, Sigma, #317240) was diluted in saline and daily administered by oral gavage. All groups received control injections by I.P. and oral gavage. At the end of the experiments, mice and tissue weights were recorded. Tissues and plasma were collected and frozen for further analyses.
Glucose tolerance and insulin tolerance tests. For glucose tolerance tests, mice were fasted overnight and I.P. injected with glucose at 2 g/kg body weight. Blood glucose levels were measured at 0, 15, 30, 45, 60, 90 and 120 mins. For insulin tolerance tests, mice were fasted for 2 h, and I.P. injected with 0.75 U/kg insulin. Blood glucose levels were measured at 0, 15, 30, 45, 60, 90 and 120 mins.

Assay [4] concerns SREBP1c, FAS, ACC. The experiment in a line: Lipogenic protein and gene expression in AML12 hepatocytes. It counts as cell-based, mouse. How it is done: Gene expression analysis. Total RNA from cultured cells or tissues was isolated using TRIzol (Thermo Fischer Scientific) and Rneasy mini kits (QIAGEN). RNA was reverse transcribed using the ABI high capacity cDNA synthesis kit. For qRT-PCR analysis, cDNA, primers and SYBR-green fluorescent dye (ABI) were used. Relative mRNA expression was determined by normalization with Cyclophilin levels using the ΔΔCt method.
as §1

B1: ISM1: recombinant mouse ISM1 protein with a C-terminal myc-his tag generated in mammalian HEK 293 Expi cells (protein, UniProt A2ATD1 30-454, looked up)
Isthmin-1: SDRQDAAAGNNNLNLESDSTSETSFPLSKEAPEEHQVVHQPFPRQRFPPETGHPSLQRDGPRSFLLDLPNFPDLSKADINGQNPNIQVTIEVVDGPDSEAEKDQHPENKPSWSLPAPDWRAWWQRSLSLARTNSGDQDDKYDSTSDDSNFLSVPRGWDRPAPGHRTFETKEQPEYDSTDGEGDWSLWSVCSVTCGNGNQKRTRSCGYACIATESRTCDRPNCPGIEDTFRTAATEVSLLAGSEEFNATKLFEVDMDSCERWMSCKSEFLKKYMHKVINDLPSCPCSYPTEVAYSTADIFDRIKRKDFRWKDASGPKEKLEIYKPTARYCIRSMLSLESTTLAAQHCCYGDNMQLITRGKGAGTPNLISTEFSAELHYKVDVLPWIICKGDWSRYNEARPPNNGQKCTESPSDEDYIKQFQEAREY
modifications: C-terminal myc-His tag
notes: recombinant mouse ISM1 protein with a C-terminal myc-his tag generated in mammalian HEK 293 Expi cells
In the case of B1, the “pAKT^S473 induction” value in assay [1] (human SGBS adipocytes) is “induced pAKT^S473”; in assay [1] (human primary skeletal muscle cells (HSMC), 100 nM, 5 min), “induced pAKT^S473”. The “effect on glucose uptake relative to that of insulin” value in assay [2] (SGBS cells) is on record as 50-100%. The “increase in glucose uptake” value in assay [2] ([3H]-2-deoxy-glucose, starting from 20 nM, 30 minutes) came out at 1.5 fold. The “concentration from which glucose uptake is increased” value in assay [2] (doses ranging from 10 nM to 200 nM) was found to be 20 nM. The fasting blood glucose result in assay [3] was “lower”. Besides, the “glucose tolerance (GTT)” value in assay [3] is listed as “comparable effects on improving glucose tolerance”. The “SREBP1c cleavage, FAS and ACC protein expression” value in assay [4] (50 nM insulin, with or without ISM1, 24 h) is given as “counteracts the insulin-induced increase in SREBP1c cleavage to the mature form”. In assay [4] (AML12 hepatocytes), the “ChREBPβ and PGC1β gene expression” value was “reduced”. In addition, the “fas, acc and scd1 gene expression” value in assay [4] (in the presence of insulin, 6 h) was “significantly reduced”.

For the origin of these results see patent US20240342244A1, “Isthmin Protein Therapeutics for the Treatment of Non-Alcoholic Fatty Liver Disease” (The Board of Trustees of the Leland Stanford Junior …, priority 2021, published 2024).
